Patent publication US6416758

Molecular target: VEGF:sFlk-1 complex (VEGF associated with its receptor) (human; mouse) (UniProt P15692)
Assay: capture ELISA: antibody coated on wells, VEGF complexed with biotinylated sFlk-1 titrated, peroxidase-avidin; concentration giving 50% maximal binding; extrapolated value (*)

Sequence of VEGF:sFlk-1 complex (VEGF associated with its receptor) (human; mouse) (P15692 other isoform, or with tags, fused parts or gaps limits assumed, chain 1 of 2): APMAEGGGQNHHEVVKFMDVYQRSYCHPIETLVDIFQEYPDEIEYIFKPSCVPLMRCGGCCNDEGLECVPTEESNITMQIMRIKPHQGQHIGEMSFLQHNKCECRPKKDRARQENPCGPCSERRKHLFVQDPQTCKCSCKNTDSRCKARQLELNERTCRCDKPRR
Sequence of VEGF:sFlk-1 complex (VEGF associated with its receptor) (human; mouse) (P35918 20-762 limits assumed, chain 2 of 2, further chain): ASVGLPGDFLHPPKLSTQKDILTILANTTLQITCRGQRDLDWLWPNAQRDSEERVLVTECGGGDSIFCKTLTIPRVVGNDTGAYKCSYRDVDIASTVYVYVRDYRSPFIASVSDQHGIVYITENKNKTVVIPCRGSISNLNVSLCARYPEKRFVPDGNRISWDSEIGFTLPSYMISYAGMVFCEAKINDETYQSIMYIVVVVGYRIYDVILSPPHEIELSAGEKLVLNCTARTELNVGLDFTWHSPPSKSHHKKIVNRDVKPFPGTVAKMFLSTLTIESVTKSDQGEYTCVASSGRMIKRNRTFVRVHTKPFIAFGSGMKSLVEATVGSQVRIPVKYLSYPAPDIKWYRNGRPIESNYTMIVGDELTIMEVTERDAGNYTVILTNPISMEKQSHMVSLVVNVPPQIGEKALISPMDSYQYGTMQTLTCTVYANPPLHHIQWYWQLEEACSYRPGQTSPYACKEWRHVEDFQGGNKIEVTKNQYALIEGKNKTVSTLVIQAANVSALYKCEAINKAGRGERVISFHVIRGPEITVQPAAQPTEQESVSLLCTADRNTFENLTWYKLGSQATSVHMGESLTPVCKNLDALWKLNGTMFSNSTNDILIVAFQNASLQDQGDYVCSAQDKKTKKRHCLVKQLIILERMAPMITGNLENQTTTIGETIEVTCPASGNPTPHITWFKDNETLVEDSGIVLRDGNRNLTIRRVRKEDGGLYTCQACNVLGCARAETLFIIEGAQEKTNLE
Sequence of A4.6.1 (mouse anti-human VEGF monoclonal antibody, Genentech) (VH): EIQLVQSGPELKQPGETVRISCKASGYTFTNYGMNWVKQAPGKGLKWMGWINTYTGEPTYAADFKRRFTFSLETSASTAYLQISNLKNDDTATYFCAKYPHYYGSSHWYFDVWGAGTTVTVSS
Sequence of A4.6.1 (mouse anti-human VEGF monoclonal antibody, Genentech) (VL): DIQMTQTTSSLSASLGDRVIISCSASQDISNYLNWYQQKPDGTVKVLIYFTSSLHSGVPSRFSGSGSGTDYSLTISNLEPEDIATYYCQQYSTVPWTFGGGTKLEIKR

EC50: 500 nM
Substance: A4.6.1 (mouse anti-human VEGF monoclonal antibody, Genentech)
